Test results: patent US20260102420A1, “CANCER IMMUNOTHERAPY” (Hoffmann-La Roche Inc., priority 2022, published 2026)
Where two headings read alike, the source gives them in different places.

What was measured:
[1] = tested on: CEA expressing metastatic CRCs; conditions: cited from earlier work
A549 = assay: T cell-mediated killing assay, A549 wt vs UAP1 KO; format: cell-based, human; conditions: FIG. 3C
Description: FIGS. 3A, 3B, 3C and 3D. Tumor intrinsic UAP1 regulates TCB-mediated cytotoxicity in vitro. T cell-mediated killing assay. UAP1 knockout cells and wt cells for FIG. 3A MKN45 with CEA-TCB, FIG. 3B MKN45 with EpCAM-TCB, FIG. 3C A549 with CEA-TCB and FIG. 3D B16F10 with Tyrp1-TCB were used and measured was the cell count of tumor cells over time in an incucyte. Graphs show mean±SEM. P values were calculated using two-tailed paired Student t-test. *P<0.05, **P<0.01
25000 MKN45-nuclight red (NLR), 20000 A549-hCEA and 10000 B16F10-NLR tumor cells (wt or UAP1 ko) were seeded in one well of a 96 well-plate. Afterwards TCBs or siinfekl were given at the indicated concentrations. […] For MKN45-NLR and B16F10-NLR, T cell-mediated killing was calculated based on the red fluorescent signal coming from the tumor cells. All values were first transformed to fold-change to time 0, and % specific lysis was calculated as follows: […]
For A549-hCEA, the cytotox-green reagent (sartorius) was added to the co-culture at 1:16000 dilution and T-cell mediated killing was assesses by measuring green fluorescent count in each well. All values were first transformed to fold-change to time 0, and then % normalized green signal was calculated as follows: [(Green fluorescent counts TCB/Green fluorescent counts control TCB)×100]. […] T-cell mediated killing was measured as above. […]

MKN45 tumors = assay: In vivo cancer model, MKN45 wt or UAP1 KO tumors in stem cell humanized NSG mice
Description: FIGS. 8A, 8B, 8C, 8D, and 8E. Deletion of UAP1 sensitizes MKN45 tumors to immunotherapy. FIG. 8A: Tumor growth curves of MKN45 wt and UAP1 KO cell in stem cell humanized NSG mice (huNSG). Animals were dosed either with vehicle control, 0.2 mg/kg or 0.4 mg/kg CEA-TCB. Time point of first dosing at day 15 as indicated. Tumor volume was measured with a caliper. Mice per group (n=10). FIG. 8B: Tumor volume ratio of TCB therapy groups and vehicle control groups for every time point after the first TCB treatment. FIG. 8C: Tumor growth curves for individual mice. Two-way-ANOVA statistical analysis was done with Graphpad Prism software. FIG. 8D and FIG. 8E show the measured individual tumor volumes over time within the treatment groups corresponding to the average values shown in FIGS. 8A and FIG. 8B.
Immunocompetent C57BL/6J and NOD.Cg-PrkdcscidIL-2rgtm1Wjl/SzJ (NSG) mice were obtained from Charles River Laboratories. All animal studies were performed under local Swiss government ethical approval and regulations (license ZH183/2020) according to international FELASA and national GV-Solas and TierSchG guidelines, respectively. […]
B16F10 and MKN45 wtl and UAP1 KO cells were trypsinized, washed and resuspended using a 1:1 mixture of tissue culture medium and Matrigel in a total volume of 100 μl. […] Tumors were measured twice weekly and tumor volume (mm3) was determined using the formula 0.5×length×width2. […]

CD8+ and CD4+ T cells = assay: Intra-tumor T cell activation marker analysis by flow cytometry; format: in vivo, mice; conditions: UAP1 KO groups, not in wt; 32 days post tumor injection; FIGS. 12A and 12B
Description: FIGS. 12A and 12B. 32 days post tumor injection, scouts were taken for intra-tumor T cell activation marker analysis. […] Data were obtained using flow cytometry. P values were calculated using two-tailed paired Student t-test. *P<0.05, **P<0.01
To confirm that the observed effect was due to the involvement of the endogenous mouse immune system, the experiment was repeated in NSG immunodeficient mice.

B1: cibisatamab (antibody, chains of the INN, looked up, V domains shown)
VH: QVQLVQSGAEVKKPGASVKVSCKASGYTFTEFGMNWVRQAPGQGLEWMGWINTKTGEATYVEEFKGRVTFTTDTSTSTAYMELRSLRSDDTAVYYCARWDFAYYVEAMDYWGQGTTVTVSS
VL: DIQMTQSPSSLSASVGDRVTITCKASAAVGTYVAWYQQKPGKAPKLLIYSASYRKRGVPSRFSGSGSGTDFTLTISSLQPEDFATYYCHQYYTYPLFTFGQGTKLEIK
VH2: QVQLVQSGAEVKKPGASVKVSCKASGYTFTEFGMNWVRQAPGQGLEWMGWINTKTGEATYVEEFKGRVTFTTDTSTSTAYMELRSLRSDDTAVYYCARWDFAYYVEAMDYWGQGTTVTVSS
VL2: QAVVTQEPSLTVSPGGTVTLTCGSSTGAVTTSNYANWVQEKPGQAFRGLIGGTNKRAPGTPARFSGSLLGGKAALTLSGAQPEDEAEYYCALWYSNLWVFGGGTKLTVL
patients with radiological shrinkage ([1]; in combination with PD-L1-inhibiting antibodies, 5/10 patients): 50%
patients with radiological shrinkage ([1]; monotherapy, 4/36 patients, failed at least two prior chemotherapy regimens): 11%
T cell killing of UAP1 KO cells compared to wt cells (A549): more efficiently killed
tumor response (MKN45 tumors; combination of UAP1 gene knockout and CEA TCB): complete tumor regression
tumor response (MKN45 tumors; mice treated with CEA-TCB only): incomplete tumor growth control
expression of the activation/exhaustion marker (Tim3) in intra-tumor T cells (CD8+ and CD4+ T cells): increased expression
